These results are taken from article PMC6555816, “Tau local structure shields an amyloid-forming motif and controls aggregation propensity” (Nature Communications, 2019).

The chains are these.
B1: 306VQIVYK311 hexapeptide (peptide)
peptide: Ac-VQIVYK-NH2
notes: also called amyloid motif; source: synthetic peptide (Genscript)

This data set concerns the molecule itself. As to the kind of experiment: ThT fluorescence aggregation assay; spontaneous self-assembly of disaggregated synthetic peptides, 200 µM, PBS, 25 µM ThT, room temperature, no inducer; the R2R3 peptides of Fig. 4 also looked at by TEM.
Consider Ac-DIKHVPGGGSVQIVYK-NH2 (peptide, UniProt P10636-8 295-311, looked up, source: synthetic peptide (Genscript)) [R2R3-N296Δ peptide fragment], for which the binding result is reported as “binds”.
For the protein B1, the binding result is listed as “binds”.
As for Ac-DNIKHVPGGGNVQIVYK-NH2 (peptide, UniProt P10636-8 295-311, looked up, source: synthetic peptide (Genscript)) [R2R3-S305N peptide fragment], the binding result was “binds”.
Under Ac-DNIKHVSGGGSVQIVYK-NH2 (peptide, UniProt P10636-8 295-311, looked up, source: synthetic peptide (Genscript)) [R2R3-P301S peptide fragment] stands “binds”.
As to Ac-DNIKHIPGGGSVQIVYK-NH2 (peptide, UniProt P10636-8 295-311, looked up, source: synthetic peptide (Genscript)) [R2R3-V300I peptide fragment], the binding result is on record as “binds”.
Consider Ac-DNIKHVLGGGSVQIVYK-NH2 (peptide, UniProt P10636-8 295-311, looked up, source: synthetic peptide (Genscript)) [R2R3-P301L peptide fragment], for which the binding result was “binds”.
In the case of Ac-DNIKHVPGVGSVQIVYK-NH2 (peptide, UniProt P10636-8 295-311, looked up, source: synthetic peptide (Genscript)) [R2R3-G303V peptide fragment], the binding result is “binds”.
